Starred links: 1 amine or outer side, 2 acyl side, 3 side chain; linkers in the order of their positions; H or OH if unused. Non-standard residues stand in square brackets, D forms with d. No end group written: not given here. (R)β21Nal = (R)-β2-1-naphthylalanine, O=C([C@@H](CN[*:1])Cc1cccc2ccccc12)[*:2]; (R)β31Nal = (R)-β3-1-naphthylalanine, O=C(C[C@@H](Cc1cccc2ccccc12)N[*:1])[*:2]; Dmt = Cc1cc(O)cc(C)c1C[C@H](N)C(=O)O
B1: EM-2 analog 10 (Tyr-Pro-(R)-β2-1-Nal-Phe-NH2) (peptide)
chain: YP[(R)β21Nal]F-NH2
modifications: N-terminus assumed
SMILES: NC(=O)[C@H](Cc1ccccc1)NC(=O)[C@@H](CNC(=O)[C@@H]1CCCN1C(=O)[C@@H](N)Cc1ccc(O)cc1)Cc1cccc2ccccc12
B2: EM-2 analog 11 (Dmt-Pro-(R)-β2-1-Nal-Phe-NH2) (peptide)
chain: [Dmt]P[(R)β21Nal]F-NH2
modifications: N-terminus assumed
SMILES: Cc1cc(O)cc(C)c1C[C@H](N)C(=O)N1CCC[C@H]1C(=O)NC[C@@H](Cc1cccc2ccccc12)C(=O)N[C@@H](Cc1ccccc1)C(N)=O
B3: EM-2 analog 13 (Dmt-Pro-(R)-β3-1-Nal-Phe-NH2) (peptide)
chain: [Dmt]P[(R)β31Nal]F-NH2
modifications: N-terminus assumed
SMILES: Cc1cc(O)cc(C)c1C[C@H](N)C(=O)N1CCC[C@H]1C(=O)N[C@@H](CC(=O)N[C@@H](Cc1ccccc1)C(N)=O)Cc1cccc2ccccc12
B4: EM-2 analog 12 (Tyr-Pro-(R)-β3-1-Nal-Phe-NH2) (peptide)
chain: YP[(R)β31Nal]F-NH2
modifications: N-terminus assumed
SMILES: NC(=O)[C@H](Cc1ccccc1)NC(=O)C[C@@H](Cc1cccc2ccccc12)NC(=O)[C@@H]1CCCN1C(=O)[C@@H](N)Cc1ccc(O)cc1

Target: T1, human delta opioid receptor (human, UniProt P41143 1-372)
T1 construct: delta opioid receptor, human recombinant, in membranes of transfected CHO cells; also called delta receptor; source: commercial membranes of CHO cells transfected with human recombinant opioid receptors
T1 sequence (P41143 whole entry, stated change not applied): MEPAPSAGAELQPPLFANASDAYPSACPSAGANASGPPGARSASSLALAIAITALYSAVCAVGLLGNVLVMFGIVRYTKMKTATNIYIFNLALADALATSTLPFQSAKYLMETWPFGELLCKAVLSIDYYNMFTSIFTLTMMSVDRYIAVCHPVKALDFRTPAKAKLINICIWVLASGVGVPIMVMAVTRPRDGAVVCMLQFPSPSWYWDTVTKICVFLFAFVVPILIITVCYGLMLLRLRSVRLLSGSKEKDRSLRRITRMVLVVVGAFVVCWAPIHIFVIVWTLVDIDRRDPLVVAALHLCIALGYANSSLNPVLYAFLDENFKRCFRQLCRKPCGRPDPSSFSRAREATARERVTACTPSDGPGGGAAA
Assay: radioligand binding; displacement of [3H]deltorphin-2 from commercial membranes of CHO cells transfected with the human recombinant delta opioid receptor; Ki, mean ± SEM, n ≥ 3
Conditions: one partner purified

Binder | Ki [nM]
B1 | > 1000
B2 | 675
B3 | 722
B4 | > 1000

Target: T2, human mu opioid receptor (human, UniProt P35372 1-400)
T2 construct: mu opioid receptor, human recombinant, in membranes of transfected CHO cells; also called mu receptor; source: commercial membranes of CHO cells transfected with human recombinant opioid receptors
T2 sequence (P35372 whole entry): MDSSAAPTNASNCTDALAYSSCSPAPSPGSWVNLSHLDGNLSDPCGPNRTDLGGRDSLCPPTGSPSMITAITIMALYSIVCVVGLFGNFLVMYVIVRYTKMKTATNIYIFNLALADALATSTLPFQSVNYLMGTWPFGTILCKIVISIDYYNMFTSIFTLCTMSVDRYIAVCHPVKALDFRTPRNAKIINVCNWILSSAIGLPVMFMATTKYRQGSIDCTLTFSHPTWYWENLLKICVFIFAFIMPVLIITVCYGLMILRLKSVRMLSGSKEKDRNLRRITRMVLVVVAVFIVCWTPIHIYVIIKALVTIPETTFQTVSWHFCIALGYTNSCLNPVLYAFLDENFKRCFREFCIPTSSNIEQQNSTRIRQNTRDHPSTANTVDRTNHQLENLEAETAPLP
Assay: radioligand binding; displacement of [3H]DAMGO from commercial membranes of CHO cells transfected with the human recombinant mu opioid receptor; Ki, mean ± SEM, n ≥ 3
Conditions: one partner purified

Binder | Ki [nM]
B1 | 34.9
B2 | 9.54
B3 | 2.75
B4 | 32.1

Target: T2, human mu opioid receptor
Assay: cell-based or functional assay
Conditions: not given

Binder | calcium mobilization, CHO cells with human mu receptor and Gαqi5: α (Emax ratio to the standard agonist)
B1 | 0.25
B2 | 0.57
B3 | 0.77
B4 | 0.97

Target: T3, human kappa opioid receptor (human, UniProt P41145 1-380)
T3 construct: kappa opioid receptor, human recombinant, in membranes of transfected CHO cells; also called kappa receptor; source: commercial membranes of CHO cells transfected with human recombinant opioid receptors
T3 sequence (P41145 whole entry): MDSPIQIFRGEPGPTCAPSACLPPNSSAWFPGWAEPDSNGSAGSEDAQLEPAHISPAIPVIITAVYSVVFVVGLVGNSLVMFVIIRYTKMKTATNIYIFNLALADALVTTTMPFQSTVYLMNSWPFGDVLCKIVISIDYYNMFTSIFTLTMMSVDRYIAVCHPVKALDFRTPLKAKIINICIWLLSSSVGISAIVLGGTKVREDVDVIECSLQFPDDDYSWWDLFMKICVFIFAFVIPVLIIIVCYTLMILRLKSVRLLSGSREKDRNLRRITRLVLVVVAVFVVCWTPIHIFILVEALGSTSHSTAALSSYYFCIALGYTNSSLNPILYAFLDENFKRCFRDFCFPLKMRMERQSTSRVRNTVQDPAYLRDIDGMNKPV
Assay: radioligand binding; displacement of [3H]U-69593 from commercial membranes of CHO cells transfected with the human recombinant kappa opioid receptor; Ki, mean ± SEM, n ≥ 3
Conditions: one partner purified

Binder | Ki [nM]
B1 | > 1000
B2 | > 1000
B3 | 915
B4 | > 1000

Reference: paper PMC9998502, “Functional selectivity of EM-2 analogs at the mu-opioid receptor” (Frontiers in Pharmacology, 2023)
